Test results published in patent US20250346646A1, “COMPOUNDS USEFUL TO TREAT METABOLIC DISORDERS” (President and Fellows of Harvard College, priority 2016, published 2025).

B1: anti-aP2 mAb: anti-aP2 monoclonal antibody of Example 4, identity not stated (probably CA33) (antibody, V domains shown)
VH: QSVEESGGRLVTPGTPLTLTCTVSGFSLSTYYMSWVRQAPGKGLEWIGIIYPSGSTYCASWAKGRFTISKASTTVDLKITSPTTEDTATYFCARPDNDGTSGYLSGFGLWGQGTLVTVSS
VL: DVVMTQTPASVSEPVGGTVTIKCQASEDISRYLVWYQQKPGQPPKRLIYKASTLASGVPSRFKGSGSGTDFTLTISDLECDDAATYYCQCTYGTYAGSFFYSFGGGTEVVVE
B2: aP2: adipocyte lipid binding protein (aP2), also known as fatty-acid binding protein 4 (FABP4), recombinant (protein)
chain: MCDAFVGTWKLVSSENFDDYMKEVGVGFATRKVAGMAKPNMIISVNGDLVTIRSESTFKNTEISFKLGVEFDEITADDRKVKSIITLDGGALVQVQKWDGKSTTIKRKRDGDKLVVECVMKGVTSTRVYERA

What was measured:
[1] = system: mice with diet induced obesity; experiment: Glucagon challenge test in mice with diet induced obesity; format: in vivo, mouse; details: HFD 20 weeks; 33 mg/kg i.p. twice a week for 3 weeks; 150 μg/kg glucagon after 4-hour fast; vs vehicle
Protocol: Mice were fed high fat diet for 20 weeks prior to the experiment. Starting from the 20th week, mice were injected with vehicle or anti-aP2 mAb at a dose of 33 mg/kg injected i.p. twice a week for 3 weeks.

human glucagon receptor = human glucagon receptor (Homo sapiens, UniProt P47871); experiment: cAMP-response element luciferase reporter in CHO-K1 cells expressing human GCGR-GFP; format: cell-based; details: CHO-K1 human GCGR cAMP reporter
Sequence of human glucagon receptor (P47871 26-477): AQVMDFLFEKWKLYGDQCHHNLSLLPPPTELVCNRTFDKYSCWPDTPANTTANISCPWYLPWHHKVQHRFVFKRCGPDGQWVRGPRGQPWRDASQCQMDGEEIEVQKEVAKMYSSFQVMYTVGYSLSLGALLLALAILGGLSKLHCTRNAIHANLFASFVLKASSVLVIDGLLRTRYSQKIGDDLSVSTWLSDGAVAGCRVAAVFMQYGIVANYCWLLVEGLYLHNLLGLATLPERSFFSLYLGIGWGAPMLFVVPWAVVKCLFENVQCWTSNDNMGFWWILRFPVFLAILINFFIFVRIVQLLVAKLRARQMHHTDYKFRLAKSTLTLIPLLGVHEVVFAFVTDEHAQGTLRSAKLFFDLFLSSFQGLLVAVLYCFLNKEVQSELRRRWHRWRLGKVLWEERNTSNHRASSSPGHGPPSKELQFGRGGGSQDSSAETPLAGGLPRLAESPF
Protocol: Bar graphs represent mean±standard deviation (s.d.), n=4-5 per group. *P<0.05, **P<0.01, ***P≤0.001, ****P≤0.0001, ns P>0.05. Multiple group comparisons were done using one-way ANOVA statistics with Tukey post-test correction. Graphs show data as mean±standard error of mean (s.e.m.), analyzed using two-way ANOVA.
During cloning hexahistadine and WELQ protease site was added for protein purification. Murine aP2 gene was cloned into pet21+ vector after the hexahistadine tag and TEV protease site for ease of purification.
Plasmids were transfected using Lipofectamine (Invitrogen) according to manufacturer's instructions. Transiently transfected cells were grown in appropriate selection antibiotics where applicable for stable cell line generation. Following three passages under selection media, single cell colonies were picked and expanded for experimentation after validation.

GCGR-ecd = target: T1, GCGR-ecd (Homo sapiens, UniProt P47871); experiment: Biolayer interferometry: GCGR-ecd binding to biotin-glucagon with or without aP2; details: BLITZ biolayer interferometry
T1 construct: GCGR extracellular domain was cloned into pFastBac shuttle vector; hexahistidine; WELQ protease site; made in house; host or cells: baculovirus expression system (pFastBac)
T1 sequence (P47871 26-136 limits assumed): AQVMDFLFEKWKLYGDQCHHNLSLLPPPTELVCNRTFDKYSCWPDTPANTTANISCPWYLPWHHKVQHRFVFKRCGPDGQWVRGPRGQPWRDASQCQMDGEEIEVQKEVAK

biotin-glucagon = biotin-glucagon (Homo sapiens, UniProt P01275); experiment: Bio-Layer Interferometry: aP2 binding to biotin-glucagon; details: read-out: Kdapp aP2 / biotinylated glucagon; biolayer interferometry, 25° C., PBS
Sequence of biotin-glucagon (P01275 53-81 limits assumed): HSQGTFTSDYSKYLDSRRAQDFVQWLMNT

glucagon = glucagon (Homo sapiens, UniProt P01275); experiment: Microscale thermophoresis, binding to glucagon; details: read-out: Kd, binding to glucagon; MST
aP2 knockout mice = experiment: Glucagon response of aP2 knockout mice given aP2, with or without CA33 preincubation; format: in vivo, mouse; details: CA33 preincubated with aP2
Source text: Mouse and rabbit-mouse hybrid monoclonal antibodies raised against the human and mouse aP2 peptides were produced and screened. […] The systemic improvement in glucose metabolism was further verified using a glucose tolerance test (GTT).

[2] = system: G6Pc and Pck1 expression in primary hepatocytes; experiment: Gluconeogenic gene expression (G6Pc, Pck1) in primary hepatocytes; format: cell-based, mouse; details: glucagon 100 nM plus recombinant aP2, vs glucagon alone
primary hepatocytes = experiment: De-novo glucose production in primary hepatocytes; format: cell-based, mouse; details: 4 hours stimulation, aP2 with glucagon
Source text: (§1) Bar graphs represent mean±standard deviation (s.d.), n=4-5 per group. *P≤0.05, **P≤0.01, ***P≤0.001, ****P≤0.0001, ns P>0.05. Multiple group comparisons were done using one-way ANOVA statistics with Tukey post-test correction.

[3] = system: HepG2-C3A human hepatoma cell line; experiment: Glycogenolysis (14C-glucose release) in HepG2-C3A cells; format: cell-based; details: 24 hours stimulation, aP2 with glucagon
Source text: as §1

aP2 deficient mice [4] = experiment: Hyper-insulinemic-pancreatic clamp in aP2 deficient mice; format: in vivo, mouse; details: insulin 3 mU/kg/min, vs vehicle
Source text: Multiple group comparisons under clamp conditions were done using one-way ANOVA statistics with Tukey post-test correction. Basal and clamp conditions between groups were compared using repeated measures two-way ANOVA with Sidak correction. Graphs show data as mean s.e.m.

aP2 deficient mice [5] = experiment: Glucagon injection test (glycaemia) in aP2 deficient mice; details: 4-hour food withdrawal
Source text: Graphs show data as mean s.e.m. Experiments were repeated at least three times with similar results.
One-way ordinary ANOVA, with Tukey correction was used for multiple group comparisons. Experiments were repeated at least three times with similar results.

| Molecule | Response to glucagon injection (glucose levels) [1] | Increase of glucagon potency by aP2 addition (human glucagon receptor) | Change of dissociation constant of glucagon to GCGR-ecd on addition of aP2 (GCGR-ecd) | Kd (biotin-glucagon) [nM] | Kd (glucagon) [nM] | Glucagon responsiveness of aP2 knockout mice (aP2 knockout mice) | Expression of gluconeogenic genes [2] | Hepatic glucose production (primary hepatocytes) | Glycogenolysis [3] | Hepatic glucose production / counterregulatory response to insulin (aP2 deficient mice [4]) | Glycaemia response (glucagon responsiveness) (aP2 deficient mice [5]) |
| --- | --- | --- | --- | --- | --- | --- | --- | --- | --- | --- | --- |
| B1 | significantly lower response |  |  |  |  |  |  |  |  |  |  |
| B2 |  | more than one order of magnitude | an order of magnitude decrease | 2340 | ~214 | rescues glucagon unresponsiveness | further increased | increased | increased | not seen | little to no-response |
